Source: patent publication US20240083996A1, “COMPOSITION FOR PROPHYLAXIS OR TREATMENT OF IL-8 RELATED DISEASES” (Chugai Seiyaku Kabushiki Kaisha, priority 2016, published 2024)

Test system: post-surgical adhesion
Test: Post-surgical adhesion-induced monkey model
Assay type: in vivo, cynomolgus monkeys
Set-up: key: ○: Adhesion found; x: No adhesion
Details: 10 mg/kg i.v. one hour or less after surgery, laparoscopy 24 to 35 days later; individuals #201, #206
Description: To prepare a post-surgical adhesion-induced model, female cynomolgus monkeys 9 to 16 years of age (provided by the Tsukuba Primate Research Center at the National Institutes of Biomedical Innovation, Health and Nutrition) were treated under anesthesia as follows. Anesthesia was performed using balanced anesthesia of ketamine/xylazine (mixed at an adequate ratio of about 2:1) and isoflurane. An incision of 5 to 6 cm was made in the median line of the abdominal wall. After opening the abdomen, a 1-cm incision was made on the uterine corpus and sutured with 4 stitches using a single suture. Then, the whole uterus was brushed five times with gauze. Next, a 1-cm incision was made to the right abdominal wall peritoneal part at 2 cm from the incised median line of the abdominal wall and sutured by running suture with 4 stitches using an absorbable suture. After suture, the sutured part was brushed five times with gauze. Likewise, the peritoneum of left abdominal wall was incised, sutured, and brushed with gauze. Finally, the median line of abdominal wall was sutured by running suture with 10 to 11 stitches. The entire steps were completed in one hour or less. The antagonist Antisedan (in roughly the same amount as that of xylazine) and the antibiotic cephradine were administered at the time of awakening after surgery. Then, the pain reliever Zalban was administered for two days after surgery, and the monkeys were observed regularly every day to confirm the absence of post-surgical abnormalities. At laparoscopic observation, anesthesia and post-surgical monitoring were also performed in the same way.
The control group was untreated. 24 to 35 days after administration of the anti-IL-8 antibody, laparoscopy was performed to observe the adhesion formed due to incision, suture, and blushing with gauze. The abdomen was incised in the median line under anesthesia, and laparoscopic observation was performed by inserting a trocar and then introducing a laparoscope. The laparoscope was connected to a video system (KARL STORZ) and a monitor. The video system was used for recording, and the monitor was used for intraperitoneal observation. The size of the adhesion was measured using a graduated bar or graduated forceps. The presence, range, and location of adhesion were assessed during laparoscopic observation. […] Although adhesion was found in individual No. 206 in the anti-IL-8 antibody administration group, no adhesion was found in the right and left abdominal wall peritoneum or at the uterine incision site in individual No. 201. […] Those skilled in the art will naturally appreciate that anti-IL-8 antibodies may exert a stronger adhesion formation-preventive effect by appropriately altering the timing of administration or such. […]

B1: H1009/L395-F1974m: H1009-F1974m (SEQ ID NO:36) heavy chain, L395-kOMT light chain; the anti-IL-8 antibody of Table 29 (antibody)
heavy: QVQLVESGGGLVQPGGSLRLSCAASGFTFSDYYLSWVRQAPGKGLEWVGLIRNKDNYHTPEYSASVKGRFTISRDDSKNSLYLTMSDLKTEDTAVYYCARENHRYDVELAYWGQGTLVTVSSASTKGPSVFPLAPSSKSTSGGTAALGCLVKDYFPEPVTVSWNSGALTSGVHTFPAVLQSSGLYSLSSVVTVPSSSLGTQTYICNVNHKPSNTKVDKKVEPKSCDKTHTCPPCPAPELRRGPSVFLFPPKPKDTLMISRTPEVTCVVVDVSHEDPEVKFNWYVDGVEVHNAKTKPREEQYNSTYRVVSVLTVLHQDWLNGKEYKCKVSNKGLPSSIEKTISKAKGQPREPQVYTLPPSREEMTKNQVSLTCLVKGFYPSDIAVEWESNGQPENNYKTTPPVLDSDGSFFLYSKLTVDKSRWQQGNVFSCSVLHEALHAHTTRKELSLSP
light: DIQMTQSPSSLSASVGDRVTITCRASEIIYSYLAWYQQKPGKAPKLLIYKAKTHADGVPSRFSGSGSGTDFTFTISSLQPEDIATYYCKHHFGFPRTFGQGTKVEIKRTVAAPSVFIFPPSDEQLKSGTASVVCLLNNFYPREAKVQWKVDNALQSGNSQESVTEQDSKDSTYSLSSTLTLSKADYEKHKVYACEVTHQGLSSPVTKSFNRGEC
adhesion at incision site: Abdominal wall Median line: ○
adhesion at incision site: Peritoneum (L): ○ and x
adhesion at incision site: Peritoneum (R): ○ and x
adhesion at incision site: Uterus: ○ and x
